“Also recorded” adds a separate entry of the source. Residues, ends and D or L forms follow the SMILES beside them.
Columns and labels:
ClpS variant W1 = molecular target: T1, ClpS variant W1 (Escherichia coli, UniProt P0A8Q6, L99A/M40A/M62C/P98A/V43C/V65A); assay: Competitive phage ELISA, non-biotinylated peptide competitors against immobilized Wpep; assay type: binding, E. coli; details: FIG. 13 legend; result in words
T1 construct: ST2 secretion signal (N, cleaved yes); made in house; host or cells: M13 phage display, amplified in E. coli XL1Blue with helper phage M13K07
Procedure: Error bars represent 95% confidence intervals (n=2).
Each phage pool was then briefly incubated in wells of a microtitre plate with Wpep ([sequence](biotin)) immobilized on neutravidin. Non-binding phage were washed away, and retained phage were detected using an enzymatically-labeled antibody against the filamentous phage particle and an appropriate colorimetric substrate. The value for W1 binding to neutravidin alone was subtracted from the binding signal from every well to correct for non-specific binding. The ELISA values were then expressed as proportions, relative to the maximum ELISA signal in absence of competitor. Error bars represent 95% confidence intervals (n=2).

[1] = system: immobilized biotinylated peptide, N-terminal amino acid A (X-SDGMFTAGSLIGK(biotin)); assay: Phage ELISA, binding to immobilized peptide, N-terminal A; details: N-terminal A; phage 1X; sub Fab
Procedure: (§1) Given the discovery that the specificity pocket library was functionally robust, selections against synthetic peptide ligands were carried out using this library. The specificity pocket library was selected against 20 biotinylated peptides, each with a different N-terminal residue atop a common leader sequence (X-SDGMFTAGSLIGK(biotin)) (SEQ ID NO: 4). The peptides were immobilized individually to the bottom wells of a microtiter plate. […] Consequently, ClpS mutant variants that prefer other residues in addition to the ligand ‘bait’ would bind those competing peptides in solution and simply be washed away. Only selective variants that bound to the immobilized target(s) were amplified during each subsequent round of selection.
(§2) To evaluate the specificity and selectivity of individual clones, both wild-type ClpS and the selected variants' binding to each of the biotinylated peptides independently were tested. The same approach was also used to monitor the progress of the selections and to prioritize particular pools of phage for further investigation.
(§3) Promising single clones were picked from the selection pools and their specificity was evaluated using the same panel of biotinylated peptides and various amounts of phage supernatant. […] Accordingly, Variant 1 represents a selective N-terminal amino acid capture probe for tryptophan useful for the sequencing methods described herein. Variant 1 also represents a useful scaffold for performing further generation and selection of variants with desirable properties for use as additional N-terminal amino acid capture probes.
(§4) The selection and ELISA protocols are very similar. Briefly, each well of a 96-well Maxisorp plate was coated overnight at 4° C. with 100 μl of 10 μg/ml neutravidin in PBS, or 1:500 dilution of anti-FLAG antibody. […]
(§5) For the ELISA readouts, 100 μl of pH adjusted phage supernatant or polyethylene glycol (PEG) precipitated concentrated phage was added to appropriate wells and allowed to bind for 1 hour at 4° C. […] The reaction was stopped by addition of 90 μl of 1M H3PO4 and the absorbance at A450 nm was read.

[2] = system: immobilized biotinylated peptide, N-terminal amino acid C (X-SDGMFTAGSLIGK(biotin)); assay: Phage ELISA, binding to immobilized peptide, N-terminal C; details: N-terminal C; phage 1X; sub Fab
Procedure: as §1, §2, §3, §4, §5

[3] = system: immobilized biotinylated peptide, N-terminal amino acid D (X-SDGMFTAGSLIGK(biotin)); assay: Phage ELISA, binding to immobilized peptide, N-terminal D; details: N-terminal D; phage 1X; sub Fab
Procedure: as §1, §2, §3, §4, §5

[4] = system: immobilized biotinylated peptide, N-terminal amino acid E (X-SDGMFTAGSLIGK(biotin)); assay: Phage ELISA, binding to immobilized peptide, N-terminal E; details: N-terminal E; phage 1X; sub Fab
Procedure: as §1, §2, §3, §4, §5

[5] = system: immobilized biotinylated peptide, N-terminal amino acid F (X-SDGMFTAGSLIGK(biotin)); assay: Phage ELISA, binding to immobilized peptide, N-terminal F; details: N-terminal F; phage 1X; sub Fab
Procedure: as §1, §2, §3, §4, §5

[6] = system: immobilized biotinylated peptide, N-terminal amino acid G (X-SDGMFTAGSLIGK(biotin)); assay: Phage ELISA, binding to immobilized peptide, N-terminal G; details: N-terminal G; phage 1X; sub Fab
Procedure: as §1, §2, §3, §4, §5

[7] = system: immobilized biotinylated peptide, N-terminal amino acid H (X-SDGMFTAGSLIGK(biotin)); assay: Phage ELISA, binding to immobilized peptide, N-terminal H; details: N-terminal H; phage 1X; sub Fab
Procedure: as §1, §2, §3, §4, §5

[8] = system: immobilized biotinylated peptide, N-terminal amino acid I (X-SDGMFTAGSLIGK(biotin)); assay: Phage ELISA, binding to immobilized peptide, N-terminal I; details: N-terminal I; phage 1X; sub Fab
Procedure: as §1, §2, §3, §4, §5

[9] = system: immobilized biotinylated peptide, N-terminal amino acid K (X-SDGMFTAGSLIGK(biotin)); assay: Phage ELISA, binding to immobilized peptide, N-terminal K; details: N-terminal K; phage 1X; sub Fab
Procedure: as §1, §2, §3, §4, §5

[10] = system: immobilized biotinylated peptide, N-terminal amino acid M (X-SDGMFTAGSLIGK(biotin)); assay: Phage ELISA, binding to immobilized peptide, N-terminal M; details: N-terminal M; phage 1X; sub Fab
Procedure: as §1, §2, §3, §4, §5

[11] = system: immobilized biotinylated peptide, N-terminal amino acid N (X-SDGMFTAGSLIGK(biotin)); assay: Phage ELISA, binding to immobilized peptide, N-terminal N; details: N-terminal N; phage 1X; sub Fab
Procedure: as §1, §2, §3, §4, §5

[12] = system: immobilized biotinylated peptide, N-terminal amino acid P (X-SDGMFTAGSLIGK(biotin)); assay: Phage ELISA, binding to immobilized peptide, N-terminal P; details: N-terminal P; phage 1X; sub Fab
Procedure: as §1, §2, §3, §4, §5

[13] = system: immobilized biotinylated peptide, N-terminal amino acid Q (X-SDGMFTAGSLIGK(biotin)); assay: Phage ELISA, binding to immobilized peptide, N-terminal Q; details: N-terminal Q; phage 1X; sub Fab
Procedure: as §1, §2, §3, §4, §5

[14] = system: immobilized biotinylated peptide, N-terminal amino acid R (X-SDGMFTAGSLIGK(biotin)); assay: Phage ELISA, binding to immobilized peptide, N-terminal R; details: N-terminal R; phage 1X; sub Fab
Procedure: as §1, §2, §3, §4, §5

[15] = system: immobilized biotinylated peptide, N-terminal amino acid S (X-SDGMFTAGSLIGK(biotin)); assay: Phage ELISA, binding to immobilized peptide, N-terminal S; details: N-terminal S; phage 1X; sub Fab
Procedure: as §1, §2, §3, §4, §5

[16] = system: immobilized biotinylated peptide, N-terminal amino acid T (X-SDGMFTAGSLIGK(biotin)); assay: Phage ELISA, binding to immobilized peptide, N-terminal T; details: N-terminal T; phage 1X; sub Fab
Procedure: as §1, §2, §3, §4, §5

[17] = system: immobilized biotinylated peptide, N-terminal amino acid V (X-SDGMFTAGSLIGK(biotin)); assay: Phage ELISA, binding to immobilized peptide, N-terminal V; details: N-terminal V; phage 1X; sub Fab
Procedure: as §1, §2, §3, §4, §5

[18] = system: immobilized biotinylated peptide, N-terminal amino acid W (X-SDGMFTAGSLIGK(biotin)); assay: Phage ELISA, binding to immobilized peptide, N-terminal W; details: N-terminal W; phage 1X; sub Fab
Procedure: as §1, §2, §3, §4, §5

[19] = system: immobilized biotinylated peptide, N-terminal amino acid Y (X-SDGMFTAGSLIGK(biotin)); assay: Phage ELISA, binding to immobilized peptide, N-terminal Y; details: N-terminal Y; phage 1X; sub Fab
Procedure: as §1, §2, §3, §4, §5

[20] = system: immobilized biotinylated peptide, N-terminal amino acid L (X-SDGMFTAGSLIGK(biotin)); assay: Phage ELISA, binding to immobilized peptide, N-terminal L; details: N-terminal L; phage 1X; sub Fab
Procedure: as §1, §2, §3, §4, §5

[21] = system: panel of 20 biotinylated peptides, each with a different N-terminal residue (X-SDGMFTAGSLIGK(biotin)); assay: Phage ELISA specificity profile over the panel of biotinylated peptides; assay type: binding; details: phage displayed; result in words; listed as ClpS Variant 1
Procedure: as §1
To evaluate the specificity and selectivity of individual clones, both wild-type ClpS and the selected variants' binding to each of the biotinylated peptides independently were tested. […]
Promising single clones were picked from the selection pools and their specificity was evaluated using the same panel of biotinylated peptides and various amounts of phage supernatant. […]
as §5

In the case of `CC[C@H](C)[C@H](NC(=O)[C@H](CC(C)C)NC(=O)[C@H](CO)NC(=O)CNC(=O)[C@H](C)NC(=O)[C@@H](NC(=O)[C@H](Cc1ccccc1)NC(=O)[C@H](CCSC)NC(=O)CNC(=O)[C@H](CC(=O)O)NC(=O)[C@H](CO)NC(=O)[C@@H](N)Cc1c[nH]c2ccccc12)[C@@H](C)O)C(=O)O` [Wpep] (H-WSDGMFTAGSLI-OH; N-terminus and C-terminus assumed), the “effective competitor for binding ClpS Variant 1” value (ClpS variant W1) is reported as “effective competitor”.

B1: Variant 1: engineered ClpS variant, SEQ ID NO: 2, binds N-terminal tryptophan selectively (protein)
chain: KPPSMYKVILVNDDYTPAEFCIDVLQKFFSYDVERATQLCLAAHYQGKAICGVFTAEVAETKVAMVNKYARENEHAALCTLEKA
B1 was tested, and the “phage ELISA binding signal” value [1] was 0.018, the “phage ELISA binding signal” value [2] was 0.066 and the “phage ELISA binding signal” value [3] was −0.017. For the same molecule, the “phage ELISA binding signal” value [4] was 0.032, the “phage ELISA binding signal” value [5] was 0.083 and the “phage ELISA binding signal” value [6] was 0.028. The “phage ELISA binding signal” value [7] was −0.001, the “phage ELISA binding signal” value [8] was −0.023 and the “phage ELISA binding signal” value [9] was 0.129. The “phage ELISA binding signal” value [10] was −0.003, the “phage ELISA binding signal” value [11] was 0.052 and the “phage ELISA binding signal” value [12] was 0.062. For the same molecule, the “phage ELISA binding signal” value [13] was 0.065, the “phage ELISA binding signal” value [14] was 0.04 and the “phage ELISA binding signal” value [15] was −0.001. For the same molecule, the “phage ELISA binding signal” value [16] was −0.005, the “phage ELISA binding signal” value [17] was 0.032 and the “phage ELISA binding signal” value [18] was 2.636. The “phage ELISA binding signal” value [19] was 0.045, the “phage ELISA binding signal” value [20] was 0.069 and the “binding specificity / preference for N-terminal amino acids” value [21] was “selectively binds polypeptides with the N-terminal amino acid tryptophan; also recorded: bound specifically to tryptophan alone; also recorded: selectively binds tryptophan N-terminal amino acids”.

Source: patent publication US11802878B2, “Protein sequencing method and reagents” (The Governing Council of the University of Toronto, priority 2009, dated 2023)
